Results from patent US20250340630A1 (SICHUAN KELUN BIOTECH BIOPHARMACEUTICAL, published 2025).
Substitutions are numbered along the chain they refer to. Values belong to the binder of their own block, whether it stands above or below them.

How the values were obtained:
human Claudin18.1 = molecular target: T1, human Claudin18.1 (human, UniProt P56856 1-261); test: FACS titration on Ba/F3-Claudin 18.1 cells
T1 construct: whole, on cells; Presented on transfected cells; also called CLDN18.1
Experimental: (§1) The affinity of the candidates to Claudin18.2 was measured using FACS. […] Ba/F3-Claudin18.1 and Ba/F3-Claudin18.2 cells were incubated with the purified mouse antibodies at various concentrations on ice for 30 min and mouse IgG was used as negative control (Thermo Fisher, Cat: 31903), followed by washing with FACS buffer (PBS+2% FBS) twice.

human Claudin18.2 [1] = molecular target: T2, human Claudin18.2 (human, UniProt P56856-2 1-261); test: flow cytometry on Ba/F3-Claudin18.2 cells, purified mouse antibody
T2 construct: whole, on cells; Four-transmembrane protein, always presented on cells (transfected lines or NUGC-4 with endogenous expression); also called CLDN18.2
Experimental: as §1

human Claudin18.2 [2] = molecular target: T2, human Claudin18.2; test: cell-based or functional assay
human Claudin18.2 [3] = molecular target: T2, human Claudin18.2; test: flow cytometry (IntelliCyt) on Ba/F3-Claudin18.2 cells
Source text: In order to evaluate the anti-Claudin18.2 humanized antibodies, codon optimized cDNAs of the heavy chains and the light chains of the candidate humanized antibodies from Example 6 were synthesized and ligated into pcDNA3.4 (by Nanjing Genscript Biotech Corporation). Expi293F cells (purchased from Thermo Incorporation) were co-transfected with pcDNA3.4 coding the heavy chain and light chain of each antibody. The antibodies were purified from the supernatant using protein A (MabSelect SuRe, GE). The affinity of the humanized antibodies to Claudin18.2 was determined using Ba/F3-Claudin18.2 cells which over-expressed human Claudin18.2. Ba/F3-Claudin18.2 cells (60000 in 10 ul buffer) were incubated with purified humanized antibodies on ice for 30 min, followed by washing with buffer (PBS+2% FBS) twice and addition of Alexa647-labeled goat-anti-human IgG Fc antibody (1:500 dilution). The cells were incubated on ice for another 30 min and analyzed by IntelliCyt.

human Claudin18.2 [4] = molecular target: T2, human Claudin18.2; test: flow cytometry on Ba/F3-Claudin18.2 cells, chimeric antibody
Experimental: The affinity of the anti-Claudin18.2 chimeric antibodies to Ba/F3-Claudin18.2 cells were determined. […] The cells were then analyzed by FACS.

B2: chimeric antibody 1E9.2-hz00 (antibody, human IgG1, kappa, V domains shown)
VH: EVMLVESGGGLVKPGGSLKLSCAASGFSFSNSAMSWVRQTPEKRLEGVATISSGDSYTYYPDSVKGRFTISRDNAKNSLYLQMSSLRSEDTAVYYCARQGYGNALDYWGQGTSVTVSS
VL: DIVMTQSPSSLTVTAGEKVTMSCKSSQSLLNSGNQKNYLTWYQQKPGQPPKLLIYWSSTRESGVPDRFTGSGSGTDFTLTISSVQAEDLAVYYCQNDYYYPLTFGAGTKLELKR
notes: Mouse variable regions on human IgG1 / kappa constant regions; expressed in Expi293F; also called 1E9.2 chimeric antibody
ADCC EC50, Ba/F3-Claudin18.2 target cells, NK-92MI_mCD16 effectors (human Claudin18.2 [2]): 0.049 µg/mL | ADCC Max killing rate %, Ba/F3-Claudin18.2 target cells (human Claudin18.2 [2]): 59.8% | Max MFI (human Claudin18.2 [3]): 1.12e+07 MFI | EC50 (human Claudin18.2 [4]): 11 nM | Max MFI (human Claudin18.2 [4]): 1.18e+07 MFI

B3: mouse antibody 1E9.2 (antibody, V domains shown)
VH: B2 VH
VL: DIVMTQSPSSLTVTAGEKVTMSCKSSQSLLNSGNQKNYLTWYQQKPGQPPKLLIYWSSTRESGVPDRFTGSGSGTDFTLTISSVQAEDLAVYYCQNDYYYPLTFGAGTKLELK
notes: Purified from hybridoma
binding result (human Claudin18.1): no binding (tested: about 50 nM) | EC50 (human Claudin18.2 [1]): 8.51 nM | Max MFI (human Claudin18.2 [1]): 5.08e+06 MFI

B4: chimeric antibody 9C8.1-hz00 (antibody, human IgG1, kappa, V domains shown)
VH: QVQLQQSGAELVRPGSSVKISCKASGYAFSNYWMNWVKQRPGQGLEWIGQIYPGDGDTNYNGKFKGKATLTTDKSSSTAYMQLSSLTSEDSAVYFCARLYYGNSFAYWGQGTLVTVSS
VL: B2 VL with M21V, S57A, E87A, V91I, Y99F, L102F, A106G, L112I
notes: Mouse variable regions on human IgG1 / kappa constant regions; expressed in Expi293F
EC50 (human Claudin18.2 [4]): 23.9 nM | Max MFI (human Claudin18.2 [4]): 1.44e+07 MFI

B5: chimeric antibody 6B9.22-hz00 (antibody, human IgG1, kappa, V domains shown)
VH: QVQLQQSGAELVKPGASVKMSCKAFGYTFTSYPIEWMKQNHGKSLEWIGNFHPYNDDTKYNEKFKGKAKLTVEKSSSTVYLELSRLTSDDSAVYYCARTYYGNSFAYWGQGTLVTVSS
VL: B2 VL with S57A, T59S, E61D, D66H, V91F, Y99F, L102F
notes: as for B4
EC50 (human Claudin18.2 [4]): 18.2 nM | Max MFI (human Claudin18.2 [4]): 1.67e+07 MFI

B6: chimeric antibody 16A9.11-hz00 (antibody, human IgG1, kappa, V domains shown)
VH: B2 VH with N74T, A97T, L105M
VL: B2 VL
notes: as for B4
EC50 (human Claudin18.2 [4]): 10.5 nM | Max MFI (human Claudin18.2 [4]): 1.24e+07 MFI

B8: chimeric antibody 19H11.6-hz00 (antibody, human IgG1, kappa, V domains shown)
VH: B2 VH with Y57F, S63T, S85R
VL: B2 VL with S22T
notes: as for B4
EC50 (human Claudin18.2 [4]): 11.6 nM | Max MFI (human Claudin18.2 [4]): 1.3e+07 MFI

B12: humanized antibody 1E9.2-hz12 (antibody, human IgG1, kappa, V domains shown)
VH: EVQLVESGGGLVKPGGSLRLSCAASGFSFSNSAMSWVRQAPGKGLEWVSTISSGDSYTYYADSVKGRFTISRDNAKNSLYLQMNSLRAEDTAVYYCARQGYGNALDYWGQGTLVTVSS
VL: DIVMTQSPDSLAVSLGERATINCKSSQSLLQSGNQKNYLTWYQQKPGQPPKLLIYWSSTRESGVPDRFSGSGSGTDFTLTISSLQAEDFAVYYCQNDYYYPLTFGGGTKVEIKR
notes: Human IgG1 / kappa constant regions
ADCC EC50, Ba/F3-Claudin18.2 target cells, NK-92MI_mCD16 effectors (human Claudin18.2 [2]): 0.091 µg/mL | ADCC Max killing rate %, Ba/F3-Claudin18.2 target cells (human Claudin18.2 [2]): 64.4%

B13: humanized antibody 1E9.2-hz15 (antibody, human IgG1, kappa, V domains shown)
VH: B12 VH
VL: DIVMTQTPLSLPVTPGEPASISCKSSQSLLNSGNQKNYLTWYLQKPGQSPQLLIYWSSTRESGVPDRFSGSGSGTDFTLKISRVEAEDFGVYYCQNDYYYPLTFGGGTKVEIKR
notes: as for B12
ADCC EC50, Ba/F3-Claudin18.2 target cells, NK-92MI_mCD16 effectors (human Claudin18.2 [2]): 0.08 µg/mL | ADCC Max killing rate %, Ba/F3-Claudin18.2 target cells (human Claudin18.2 [2]): 66.2% | Max MFI (human Claudin18.2 [3]): 8.99e+06 MFI

B14: humanized antibody 1E9.2-hz13 (antibody, human IgG1, kappa, V domains shown)
VH: B12 VH
VL: B12 VL with F89V
notes: as for B12
ADCC EC50, Ba/F3-Claudin18.2 target cells, NK-92MI_mCD16 effectors (human Claudin18.2 [2]): 0.068 µg/mL | ADCC Max killing rate %, Ba/F3-Claudin18.2 target cells (human Claudin18.2 [2]): 63.8%

B15: humanized antibody 1E9.2-hz21 (antibody, human IgG1, kappa, V domains shown)
VH: B12 VH with W47G
VL: B12 VL with Q31N
notes: as for B12
Max MFI (human Claudin18.2 [3]): 1.46e+07 MFI

B16: humanized antibody 1E9.2-hz17 (antibody, human IgG1, kappa, V domains shown)
VH: B12 VH
VL: B13 VL with N31Q, Q35G
notes: as for B12
ADCC EC50, Ba/F3-Claudin18.2 target cells, NK-92MI_mCD16 effectors (human Claudin18.2 [2]): 0.113 µg/mL | ADCC Max killing rate %, Ba/F3-Claudin18.2 target cells (human Claudin18.2 [2]): 59.6% | Max MFI (human Claudin18.2 [3]): 5.9e+06 MFI

B19: humanized antibody 1E9.2-hz14 (antibody, human IgG1, kappa, V domains shown)
VH: B12 VH
VL: B12 VL with Q35N
notes: as for B12
ADCC EC50, Ba/F3-Claudin18.2 target cells, NK-92MI_mCD16 effectors (human Claudin18.2 [2]): 0.097 µg/mL | ADCC Max killing rate %, Ba/F3-Claudin18.2 target cells (human Claudin18.2 [2]): 60.5%

Further lines, with some results ahead:

binding result (human Claudin18.1): no binding (tested: about 50 nM) | EC50 (human Claudin18.2 [1]): 3.64 nM | Max MFI (human Claudin18.2 [1]): 3.62e+06 MFI
B1: mouse antibody 6B9.22 (antibody, V domains shown)
VH: B5 VH
VL: B3 VL with S57A, T59S, E61D, D66H, V91F, Y99F, L102F
notes: Purified from hybridoma

binding result (human Claudin18.1): no binding (tested: about 50 nM) | EC50 (human Claudin18.2 [1]): 10.9 nM | Max MFI (human Claudin18.2 [1]): 6.01e+06 MFI
B7: mouse antibody 19H11.6 (antibody, V domains shown)
VH: B2 VH with Y57F, S63T, S85R
VL: B3 VL with S22T
notes: Purified from hybridoma

binding result (human Claudin18.1): no binding (tested: about 50 nM) | EC50 (human Claudin18.2 [1]): 10.2 nM | Max MFI (human Claudin18.2 [1]): 5.82e+06 MFI
B9: mouse antibody 16A9.11 (antibody, V domains shown)
VH: B2 VH with N74T, A97T, L105M
VL: B3 VL
notes: Purified from hybridoma

binding result (human Claudin18.1): no binding (tested: about 50 nM) | EC50 (human Claudin18.2 [1]): 16.3 nM | Max MFI (human Claudin18.2 [1]): 3.5e+06 MFI
B10: mouse antibody 19G10.14 (antibody, V domains shown)
VH: QVQLKESGPGLVAPSQSLSITCTVSGFSFTSYGVHWVRQPPGKGLEWLGVIWAGGSTDYNAALMSRLSIRKDNSKSQVFLKMNSLQIADTAMYYCARDGHGKVGFDVWGAGTTVTVSS
VL: DIVMTQSPSSLSVSAGEKVTMNCKSSQSLLNSGNQKNYLAWYQQKPGQPPKLLIYGASTRESGVPDRFTGGGSGTDFTLTISSVQAEDLAIYYCQNDHFYPFTFGSGTKLEIK
notes: Purified from hybridoma

binding result (human Claudin18.1): no binding (tested: about 50 nM) | EC50 (human Claudin18.2 [1]): 9.4 nM | Max MFI (human Claudin18.2 [1]): 4.97e+06 MFI
B11: mouse antibody 9C8.1 (antibody, V domains shown)
VH: B4 VH
VL: B3 VL with M21V, S57A, E87A, V91I, Y99F, L102F, A106G, L112I
notes: Purified from hybridoma

ADCC EC50, Ba/F3-Claudin18.2 target cells, NK-92MI_mCD16 effectors (human Claudin18.2 [2]): 0.048 µg/mL | Max MFI (human Claudin18.2 [3]): 1.13e+07 MFI
B17: humanized antibody 1E9.2-hz41 (antibody, human IgG1, kappa, V domains shown)
VH: B12 VH with W47G, S49A, A61P
VL: B12 VL with Q31N
notes: as for B12
ADCC Max killing rate %, Ba/F3-Claudin18.2 target cells (human Claudin18.2 [2]): 55.4%

Max MFI (human Claudin18.2 [3]): 1.06e+07 MFI
B18: humanized antibody 1E9.2-hz31 (antibody, human IgG1, kappa, V domains shown)
VH: B12 VH with W47G, S49A
VL: B12 VL with Q31N
notes: as for B12
